Measurements as given in article PMC9482650, “Quantitative fragmentomics allow affinity mapping of interactomes” (Nature Communications, 2022).

T1: APBA1_2, Q02410
T1 sequence (Q02410 742-832, limits assumed, looked up): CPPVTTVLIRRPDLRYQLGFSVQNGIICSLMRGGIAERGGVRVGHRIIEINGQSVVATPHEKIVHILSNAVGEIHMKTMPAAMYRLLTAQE

T2: APBA2_1, Q99767
T2 sequence (Q99767 563-664, limits assumed, looked up): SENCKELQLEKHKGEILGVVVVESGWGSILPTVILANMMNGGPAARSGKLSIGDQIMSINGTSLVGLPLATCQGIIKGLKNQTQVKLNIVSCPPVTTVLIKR

T3: ARHGEF11, O15085
T3 sequence (O15085 42-136, limits assumed, looked up): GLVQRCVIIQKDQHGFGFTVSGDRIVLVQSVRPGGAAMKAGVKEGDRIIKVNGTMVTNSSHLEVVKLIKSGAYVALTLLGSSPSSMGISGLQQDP

T4: DLG3_1, Q92796
T4 sequence (Q92796 125-227, limits assumed, looked up): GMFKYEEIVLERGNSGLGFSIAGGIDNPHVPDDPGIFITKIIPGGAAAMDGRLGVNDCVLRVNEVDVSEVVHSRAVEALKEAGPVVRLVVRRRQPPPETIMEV

T5: LIN7A, O14910
T5 sequence (O14910 103-200, limits assumed, looked up): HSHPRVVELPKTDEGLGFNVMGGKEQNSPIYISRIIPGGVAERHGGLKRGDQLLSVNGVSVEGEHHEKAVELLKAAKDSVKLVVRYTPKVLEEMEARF

T6: LIN7C, Q9NUP9
T6 sequence (Q9NUP9 88-185, limits assumed, looked up): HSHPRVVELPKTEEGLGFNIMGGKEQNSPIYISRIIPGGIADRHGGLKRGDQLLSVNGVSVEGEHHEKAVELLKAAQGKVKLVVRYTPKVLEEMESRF

T7: PARD3B_1, Q8TEW8
T7 sequence (Q8TEW8 196-299, limits assumed, looked up): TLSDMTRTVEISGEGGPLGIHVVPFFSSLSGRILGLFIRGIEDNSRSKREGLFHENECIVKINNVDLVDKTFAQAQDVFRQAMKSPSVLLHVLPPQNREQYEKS

T8: PCLO, Q9Y6V0
T8 sequence (Q9Y6V0 4491-4600, limits assumed, looked up): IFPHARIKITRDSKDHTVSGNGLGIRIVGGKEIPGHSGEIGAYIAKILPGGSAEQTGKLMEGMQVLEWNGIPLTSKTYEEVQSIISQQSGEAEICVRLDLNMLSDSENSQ

T9: RAPGEF6, Q8TEU7
T9 sequence (Q8TEU7 525-625, limits assumed, looked up): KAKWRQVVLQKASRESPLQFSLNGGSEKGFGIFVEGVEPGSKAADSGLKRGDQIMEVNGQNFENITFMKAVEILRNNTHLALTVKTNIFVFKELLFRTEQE

T10: SNTG2, Q9NY99
T10 sequence (Q9NY99 68-166, limits assumed, looked up): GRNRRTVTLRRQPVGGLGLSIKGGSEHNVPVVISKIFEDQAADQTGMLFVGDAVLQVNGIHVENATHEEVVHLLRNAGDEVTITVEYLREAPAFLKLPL

T11: TX1BP3, O14907
T11 sequence (O14907 10-122, limits assumed, looked up): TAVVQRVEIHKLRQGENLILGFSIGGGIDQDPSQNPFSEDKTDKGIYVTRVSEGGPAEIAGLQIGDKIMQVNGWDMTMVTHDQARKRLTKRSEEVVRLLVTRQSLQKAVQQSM


How the values were obtained:
Test in all cases: holdup assay
Design in all cases: key: below the threshold = too weak to quantify, mostly under pKd 3.1 to 4
Conditions in all cases: plain residues with an end cap or a label only (N-terminal biotin on a linker: ado-ado)
AHNAK1, Q09666 = biological target: AHNAK1, Q09666
APBA1_2, Q02410 = biological target: T1, APBA1_2, Q02410
APBA2_1, Q99767 = biological target: T2, APBA2_1, Q99767
ARHGEF11, O15085 = biological target: T3, ARHGEF11, O15085
DLG1_2, Q12959 = biological target: DLG1_2, Q12959
DLG2_3, Q15700 = biological target: DLG2_3, Q15700
DLG3_1, Q92796 = biological target: T4, DLG3_1, Q92796
DLG5_1, Q8TDM6 = biological target: DLG5_1, Q8TDM6
FRMPD2_3, Q68DX3 = biological target: FRMPD2_3, Q68DX3
FRMPD3, Q5JV73 = biological target: FRMPD3, Q5JV73
GRASP, Q7Z6J2 = biological target: GRASP, Q7Z6J2
GRIP2_7, Q9C0E4 = biological target: GRIP2_7, Q9C0E4
HTRA2, O43464 = biological target: HTRA2, O43464
Inadl_10, Q8NI35 = biological target: Inadl_10, Q8NI35
Inadl_9, Q8NI35 = biological target: Inadl_9, Q8NI35
LIMK2, P53671 = biological target: LIMK2, P53671
LIN7A, O14910 = biological target: T5, LIN7A, O14910
LIN7C, Q9NUP9 = biological target: T6, LIN7C, Q9NUP9
LNX1_1, Q8TBB1 = biological target: LNX1_1, Q8TBB1
LNX1_2, Q8TBB1 = biological target: LNX1_2, Q8TBB1
MAGI2_6, Q86UL8 = biological target: MAGI2_6, Q86UL8
MAGI3_2, Q5TCQ9 = biological target: MAGI3_2, Q5TCQ9
PARD3B_1, Q8TEW8 = biological target: T7, PARD3B_1, Q8TEW8
PCLO, Q9Y6V0 = biological target: T8, PCLO, Q9Y6V0
RAPGEF6, Q8TEU7 = biological target: T9, RAPGEF6, Q8TEU7
SNTG2, Q9NY99 = biological target: T10, SNTG2, Q9NY99
TX1BP3, O14907 = biological target: T11, TX1BP3, O14907

Sequence of LNX1_2, Q8TBB1 (Q8TBB1 371-470): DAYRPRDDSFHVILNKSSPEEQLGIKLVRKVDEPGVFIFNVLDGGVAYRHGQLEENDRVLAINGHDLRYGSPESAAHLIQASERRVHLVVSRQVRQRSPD
Sequence of GRASP, Q7Z6J2 (Q7Z6J2 96-193): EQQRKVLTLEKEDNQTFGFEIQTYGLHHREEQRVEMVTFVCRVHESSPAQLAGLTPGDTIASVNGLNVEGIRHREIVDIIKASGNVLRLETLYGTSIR
Sequence of LIMK2, P53671 (P53671 143-248): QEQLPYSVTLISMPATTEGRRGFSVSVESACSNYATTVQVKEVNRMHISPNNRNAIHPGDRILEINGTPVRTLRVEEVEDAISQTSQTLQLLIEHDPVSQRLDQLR
Sequence of MAGI2_6, Q86UL8 (Q86UL8 1141-1229): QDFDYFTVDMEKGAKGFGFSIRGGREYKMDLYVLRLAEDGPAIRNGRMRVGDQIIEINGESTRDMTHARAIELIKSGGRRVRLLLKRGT
Sequence of LNX1_1, Q8TBB1 (Q8TBB1 261-371): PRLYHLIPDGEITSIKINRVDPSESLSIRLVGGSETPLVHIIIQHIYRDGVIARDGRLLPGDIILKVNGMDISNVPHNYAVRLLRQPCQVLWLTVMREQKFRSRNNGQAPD
Sequence of DLG5_1, Q8TDM6 (Q8TDM6 617-713): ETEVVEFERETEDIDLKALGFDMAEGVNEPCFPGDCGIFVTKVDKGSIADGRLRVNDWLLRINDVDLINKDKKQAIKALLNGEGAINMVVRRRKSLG
Sequence of DLG1_2, Q12959 (Q12959 314-412): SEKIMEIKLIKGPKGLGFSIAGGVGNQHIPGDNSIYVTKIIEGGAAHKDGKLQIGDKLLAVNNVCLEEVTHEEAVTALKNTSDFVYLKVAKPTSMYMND
Sequence of Inadl_9, Q8NI35 (Q8NI35 1530-1615): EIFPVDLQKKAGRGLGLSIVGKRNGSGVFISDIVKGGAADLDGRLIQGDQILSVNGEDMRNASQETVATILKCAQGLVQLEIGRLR
Sequence of FRMPD2_3, Q68DX3 (Q68DX3 1073-1166): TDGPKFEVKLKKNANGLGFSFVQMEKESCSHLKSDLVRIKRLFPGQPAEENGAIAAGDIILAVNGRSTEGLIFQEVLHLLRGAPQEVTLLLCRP
Sequence of Inadl_10, Q8NI35 (Q8NI35 1673-1763): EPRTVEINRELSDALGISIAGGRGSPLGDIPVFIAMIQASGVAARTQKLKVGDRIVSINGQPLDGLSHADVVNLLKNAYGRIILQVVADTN
Sequence of MAGI3_2, Q5TCQ9 (Q5TCQ9 398-503): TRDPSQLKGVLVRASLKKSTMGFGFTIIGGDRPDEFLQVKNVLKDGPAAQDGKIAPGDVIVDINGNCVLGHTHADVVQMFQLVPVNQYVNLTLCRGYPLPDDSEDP
Sequence of FRMPD3, Q5JV73 (Q5JV73 12-100): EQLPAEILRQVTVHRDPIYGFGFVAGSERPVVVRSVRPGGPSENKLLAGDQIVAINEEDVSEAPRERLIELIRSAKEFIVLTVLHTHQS
Sequence of GRIP2_7, Q9C0E4 (Q9C0E4 934-1023): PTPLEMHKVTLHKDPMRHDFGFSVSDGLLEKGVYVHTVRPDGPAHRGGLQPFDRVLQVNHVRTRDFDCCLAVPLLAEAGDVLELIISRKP
Sequence of HTRA2, O43464 (O43464 355-458): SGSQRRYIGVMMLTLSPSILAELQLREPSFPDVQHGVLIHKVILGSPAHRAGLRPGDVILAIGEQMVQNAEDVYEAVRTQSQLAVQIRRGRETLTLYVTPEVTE
Sequence of AHNAK1, Q09666 (Q09666 4-100): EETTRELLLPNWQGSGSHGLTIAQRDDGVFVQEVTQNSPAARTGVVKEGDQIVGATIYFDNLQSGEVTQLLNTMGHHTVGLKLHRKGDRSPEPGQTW

| Binder | pKd (AHNAK1, Q09666) | pKd (APBA1_2, Q02410) | pKd (APBA2_1, Q99767) | pKd (ARHGEF11, O15085) | pKd (DLG1_2, Q12959) | pKd (DLG2_3, Q15700) | pKd (DLG3_1, Q92796) | pKd (DLG5_1, Q8TDM6) | pKd (FRMPD2_3, Q68DX3) | pKd (FRMPD3, Q5JV73) | pKd (GRASP, Q7Z6J2) | pKd (GRIP2_7, Q9C0E4) | pKd (HTRA2, O43464) | pKd (Inadl_10, Q8NI35) | pKd (Inadl_9, Q8NI35) | pKd (LIMK2, P53671) | pKd (LIN7A, O14910) | pKd (LIN7C, Q9NUP9) | pKd (LNX1_1, Q8TBB1) | pKd (LNX1_2, Q8TBB1) | further results |
| --- | --- | --- | --- | --- | --- | --- | --- | --- | --- | --- | --- | --- | --- | --- | --- | --- | --- | --- | --- | --- | --- |
| SKSNFGSEPL [KIF17, Q9P2E2] | below the threshold | below the threshold | below the threshold | below the threshold | below the threshold | below the threshold | below the threshold | below the threshold | below the threshold | below the threshold | below the threshold | below the threshold | below the threshold | below the threshold | below the threshold | below the threshold | below the threshold | 4.09 | below the threshold | below the threshold | pKd (MAGI2_6, Q86UL8): below the threshold; pKd (MAGI3_2, Q5TCQ9): below the threshold; pKd (PARD3B_1, Q8TEW8): 3.65; pKd (PCLO, Q9Y6V0): below the threshold; pKd (RAPGEF6, Q8TEU7): below the threshold; pKd (SNTG2, Q9NY99): below the threshold; pKd (TX1BP3, O14907): 5.05 |
| PDGQCTVTEV [RNF146, Q9NTX7] | below the threshold | 4.32 | below the threshold | 5.09 | 5.3 | 3.68 | 3.87 | below the threshold | below the threshold | below the threshold | 4.7 | 3.56 | below the threshold | 3.58 | 3.72 | below the threshold | below the threshold | below the threshold | 4.12 | 3.99 | pKd (MAGI2_6, Q86UL8): 4.71; pKd (MAGI3_2, Q5TCQ9): 4.21; pKd (PARD3B_1, Q8TEW8): below the threshold; pKd (PCLO, Q9Y6V0): below the threshold; pKd (RAPGEF6, Q8TEU7): below the threshold; pKd (SNTG2, Q9NY99): 3.98; pKd (TX1BP3, O14907): 4.78 |
| DTTVPESEDL [MYOZ2, Q9NPC6] | below the threshold | below the threshold | below the threshold | 3.7 | below the threshold | below the threshold | below the threshold | below the threshold | below the threshold | below the threshold | below the threshold | below the threshold | below the threshold | below the threshold | below the threshold | below the threshold | below the threshold | below the threshold | below the threshold | below the threshold | pKd (MAGI2_6, Q86UL8): 4.11; pKd (MAGI3_2, Q5TCQ9): below the threshold; pKd (PARD3B_1, Q8TEW8): below the threshold; pKd (PCLO, Q9Y6V0): below the threshold; pKd (RAPGEF6, Q8TEU7): below the threshold; pKd (SNTG2, Q9NY99): below the threshold; pKd (TX1BP3, O14907): below the threshold |
| SAKVRTVTSV [RASL11B, Q9BPW5] | below the threshold | 3.92 | below the threshold | 4.45 | 5.21 | 5 | 3.84 | below the threshold | below the threshold | below the threshold | 4.54 | below the threshold | below the threshold | below the threshold | below the threshold | below the threshold | below the threshold | below the threshold | 4.04 | 3.92 | pKd (MAGI2_6, Q86UL8): 3.85; pKd (MAGI3_2, Q5TCQ9): 5.74; pKd (PARD3B_1, Q8TEW8): below the threshold; pKd (PCLO, Q9Y6V0): below the threshold; pKd (RAPGEF6, Q8TEU7): below the threshold; pKd (SNTG2, Q9NY99): 3.6; pKd (TX1BP3, O14907): 4.53 |
| YYKRPVQEWV [MMP24, Q9Y5R2] | below the threshold | 5.02 | below the threshold | 4.3 | 3.99 | 3.7 | below the threshold | below the threshold | 3.52 | 3.55 | 3.88 | 4.32 | 4.4 | below the threshold | 4.17 | below the threshold | below the threshold | below the threshold | 3.5 | 3.71 | pKd (MAGI2_6, Q86UL8): 4.31; pKd (MAGI3_2, Q5TCQ9): 3.85; pKd (PARD3B_1, Q8TEW8): below the threshold; pKd (PCLO, Q9Y6V0): below the threshold; pKd (RAPGEF6, Q8TEU7): below the threshold; pKd (SNTG2, Q9NY99): below the threshold; pKd (TX1BP3, O14907): 3.87 |
